Measurements from US20220340657A1.

Experiments:
[1] = target: cyno-LAG3-hFc (cynomolgus monkey); test: ELISA
[2] = target: cyno-LAG3-hFc (cynomolgus monkey); test: Biacore

## positive control antibody Ref (BMS-986016)
[1]
  EC50: 35.3 nM
[2]
  Kd: 836 nM
